From a protein production outcome set (Wang et al. 2014)

Assay: label from the status in PepcDB records

Which protein production does the source give for “MYDSRGVALHSELIHRWNHAFSILSIVAFPKKRLLFAGSQDSKILVFDLPTYNLIHTIRLGESQEETHTRSSVLCLTGSEDENFLFSGGADSLVRIWSIGEKTIRDDFLPVTEIATVYSVTDIGDIFSLAYLDSLETIVFGCQNASLLYVENLIQKIEKKSSDGVENINKLPHRRYDKFFDSLGPTGYSSNSLSQTSLTSLQENCGAAIIEVPSENIIKYAHYGFIYSINKLCPRFNQLLEKSSRTSGAEHIISSAGDGISKLWEFSKDKGQNTVKISLINDKIDNEDSVISQTIEFPFLYCGLTDGIIKIWDLNTQQIISTLKTKHESDVISISVYMDHVFAIDESGITHFYQNQVNHWNPQQGKILSSEIFSKSNAGSVSLLTGGSDGSLTLWDITSLLSAVPLSSNSPINASSTLQTTNLWAAYQSASLNNEEMLNTLRELISFQTVSQSKDTTNTLSLRRCAIYLQQLFLKFGATNSQLFPLPDGGNPVVFAYFQGNGKVSQVKGAKKKRILWYGHYDVISSGNTFNWNTDPFTLTCENGYLKGRGVSDNKGPLVSAIHSVAYLFQQGELVNDVVFLVEGSEEIGSASLKQVCEKYHDIIGKDIDWILLSNSTWVDQEHPCLNYGLRGVINAQIKVWSDKPDGHSGLNGGVYDEPMVNLVKIVSKLQNEQNEIMIPNFYSPLKDLTEEEYQRFQKITELANIDENTTVQDLITNWTKPSLSMTTVKFSGPGNITVIPKSVTMGISIRLVPEQSVEQVKRDLKAYLEESFKQLKSQNHLEIKVLNEAEGWLGDPTNHAYQILKDEITTAWDVEPLLVREGGSISCLRMLERIFDAPAVQIPCGQSTDNGHLANENLRIKNWSNLTEILSKVFNRL” here?
The protein production was “failed”.

For “KKISSTAVIELALDLATSLNTKDRFDRLLDTVRKTITCDAVALLSYHGDVLKPIALQGLSRDTLGRRFYVEEHPRFLALCQSKSPIRFAADSPLPDPYDGLLIDREGDLPVHSCMGLPLYYDDKLLGLLTIDSLTPHDFEDIDVRMLEVISAIAAATLNTAFLLDQLESRADHSQRVVAELTEEAWKRDGGE”, which protein production is on record?
The protein production was “failed”.

With “MKKSINEQKTIFIILLSNIFVAFLGIGLIIPVMPSFMKIMHLSGSTMGYLVAAFAISQLITSPFAGRWVDRFGRKKMIILGLLIFSLSELIFGLGTHVSIFYFSRILGGVSAAFIMPAVTAYVADITTLKERSKAMGYVSAAISTGFIIGPGAGGFIAGFGIRMPFFFASAIALIAAVTSVFILKESLSIEERHQLSSHTKESNFIKDLKRSIHPVYFIAFIIVFVMAFGLSAYETVFSLFSDHKFGFTPKDIAAIITISSIVAVVIQVLLFGKLVNKLGEKRMIQLCLITGAILAFVSTVMSGFLTVLLVTCFIFLAFDLLRPALTAHLSNMAGNQQGFVAGMNSTYTSLGNIFGPALGGILFDLNIHYPFLFAGFVMIVGLGLTMVWKEKKNDAAALN” as the sequence, how does the protein production read?
Its protein production is “failed”.

Which protein production does the source give for “MGVALAAMCLMSAQAQRRNEIQVPNLNGYTTLKCDFHMHSVFSDGLVWPTVRVDEAYREGLDAISLTEHIEYRPHKKDIIADHNRSYELSQKQAKKLGILLIRGSEITRSMPPGHFNAIFLNDSNPLEQKAYKDAFNEAKKQGAFIFWNHPGWARQQPDSTLWWPEHTQLYNDGCMHGIEVANGGLFMPEAIQWCLDKNLTMIGTSDIHQPIQTDYDFSKGEHRTMTFVFAKERSPEGIREALDNRRTAVYYRELVIGREEILRPFFEKCVDIKEVKRTEKEVTFSVMNATDLVLKLKKTAHDPSLVYFREMTLKPHTQHTISVKFDNGIKGGDCNFEVTNFIVAPDKGLDYTIKL” here?
Its protein production is “not failed”.

For “MVYLLPFFTVMIWGGNSIVNKMAASTIEPSAMSFYRWFVAMVLLTPFCLPAVIKQRHVIRPYLTKLAFLALLGMVLNQSLGYYAGLTTTASNMALITSLVPLISVFLSVPLLGKSVSMLSIVGGVISLGGLAFMLGHGDVTYFLHQDMTQGDSLMLLAALVYAAYCVLLKRWKMPFNSLTLVYMQGFFSVIMLTPLWLSSEQLLPSQEALPLIAYAGIAASIFAPLMWVKAIDLIGADSSAMFMNLMPVVSVALASTLLGEEIHVYHIIGGLMVISGVILSQIKVRKKQDLVVSESLTTTTR”, which protein production is on record?
Its protein production is “failed”.

With “MGSKKQIRVQNISHDNIYSGLRCFVDGSWKGSDKFSGLGWFCRSSNGDSPTMGAANLRRSLYPLHTEVEALLWSMKCMIGADNQEVAFFTDYSDLVKMVSSPTE” as the sequence, how does the protein production read?
Its protein production is “failed”.

Which protein production does the source give for “MELGAYRWKAPVGYLDEYVKSFRERKIIGSLCASCGRVYVPPREICARCFTETAEKVEVSQYGEVLAFLVSPPLEKGKVVIAGIDAVQAGFLKEGEQIILAMVRFEGTSSSLVLPLINTEPEKVRVGMKVKAVWAEECKGKLADLIGVEPAFEVIYKLEHHHHHH” here?
The protein production was “failed”.

For “MIYEPAEDSELLLEAALRELKPDDEVIEVGAGSGFVAERLKGKCKCILTTDISPFAAMELRRKGLDVVMTDIAKGIRKKFSLVLFNPPYVELEDELRRGDWLDVAIDGGKKGVKVIKKFLDSLDEIMAERGRAILIASSQNEPDVFDLIDERGFRYEIVGERGLFFEKLFAIKIWKE”, which protein production is on record?
Its protein production is “failed”.

For “MADPTSSERLLVTAALPYANGPIHIGHLAGAYLPADLFVRYQRLKGEDVAFICGSDEMGVAILMRAIREDRTPEDIIDTYHPQIRDNFERFGMSFDYYGRTSSETHTETTQDFFRVLDENGGFDLKTDEQLYDPEAEMFLADRFVIGTCPVCGFEEAYGDQCEQCGSSLSPTELENPQSTLTDATPEFKETTHWYLPLGELQPQLEEWIGSHPEWKNNVVGQIQSWFDEGLKGRAITRDVLWGVPVPDDVAERHGLEAEGKVIYVWFDAPIGYISATKEWAAEQGEPDAWTDYWQDEDTRLVHFIGKDNIVFHCLMFPSMLMEHGDYVLPDNVPANEFLNLEGEKLSTSRGWAVWLHEYLDDFADERHAPDLLRYALATTLPETKDADFSWEGFQQRVNGELANVFGNFVHRTLTFAQRYFDGTVPPLEDPSEADRVMLDRMAEVPDTVGAAYEEHRTRDAVFETMALARRGNKYFNDTEPWHTHESDPQACANTIHVSLQVCAALSILFEPVLPSAAATLRERIGLENVRTSTPDDDPAGAVGWEDAGAPLLPAGHPIPSGPDPEPLFQKIDDDTIEAQIEKLRDRAAERDTDPSSTTDMDYEALSDNISFDDFTQLDLRAGTVTTAEPVPDADKLLRLEVDLGFEERQILAGVAEQMAPDDVVGLEVVVVANMAPKEMFGFESQGMVLMAEEPDGTFVPVTTEAEDGSVVR”, which protein production is on record?
Its protein production is “failed”.

For “MMAGFAQTTITKINQFYERWMPRLPAEMTARNVLVFCVVCLLCIGSVMVASASMPYAEYMHENPFHYVVRHAISIATAAIVAYLVYKVPLNVWFKNTFSFWLITILLLLAVLVIGTEVNGSRRWIRLAGFTLQPTEVAKVMMAIFTADYVVRRAKEVRTHWKGLVRLSGVMAITVGLIIAEPDLGATVVIVLMMVGIFFLAGAPPTQFAIMLGAVVMGIGFLILFEPYRLARAMSFTNPWADPLGTGYQLSNALMAFGRGEWFGTGLGHSVQKLSYLPEAHTDFMLAVLGEEFGFVGISIVIGLSFIMLACCIKIGHRALKHNFLRAGYLAYGISIIFLLQIIVNAGMNMGLMPTKGLTLPFISYGGTSLMMCAAMISLILRIDASTQEINPDREESNF”, which protein production is on record?
Its protein production is “failed”.

For “MSDWQMAEAWTLEEAIANIQQTEDTGKRYYAAWWFGKFRVQDERAVNALLAALKDETDRSPDGGYPLRRNAAKALGKLGNLAAVQPLIESLESPDYYVRESAAQSLEMLGDRQAIPALQALLAGGVAAAVKAEGKPHLVQPYEAVIEALGTIGATAAIAEIEPFLDHEFAKIRYAALRALYQLTQEAHYAEQLMEALNGNQLQLRRSALLDLGAIGYVPAGQAIAKAYAENSLKLISLKGILESHLQRTAETLDADGLQLLELMDSLL”, which protein production is on record?
The protein production was “failed”.

Which protein production does the source give for “MNENHLLDLEEQKTDLGRVEISPEVIEVIAGIAASEVEGVATMRGNFAAGVAEKLGYKNHGKGVKVDLNDEGIIVDVSVIILYGVSVPEVAKKIQQNIKQALQTMTAIELQSINVHIVGVHFEAVDGEEETKLEHHHHHH” here?
The protein production was “failed”.

For “MTEDRLSAEDKKFLEVERALKEAALNPLRHATEELFGDFLKMENITEICYNGNKVVWVLKNNGEWQPFDVRDRKAFSLSRLMHFARCCASFKKKTIDNYENPILSSNLANGERVQIVLSPVTVNDETISISIRIPSKTTYPHSFFEEQGFYNLLDNKEQAISAIKDGIAIGKNVIVCGGTGSGKTTYIKSIMEFIPKEERIISIEDTEEIVFKHHKNYTQLFFGGNITSADCLKSCLRMRPDRIILGELRSSEAYDFYNVLCSGHKGTLTTLHAGSSEEAFIRLANMSSSNSAARNIKFESLIEGFKDLIDMIVHINHHKQCDEFYIKHR”, which protein production is on record?
The protein production was “not failed”.

For “MHIRRDQYMNEYVWETCEELDKKIADRVRLIRKRRSISQEKLSKISNVSLGSIKRFETTGQISLLSLTKIAVALNIADDLRNIFTEIPYNSIEEVINERR”, which protein production is on record?
The protein production was “not failed”.

With “MKKVLALVAFVVLFSFSFLSAGVTAQAALKDGTYSVDYTVLQGDSDSVSMANDYFDKPATVTVNGGKSTVSLQVNHSKWITGLWVEGNAVSVTSKNTASDTRKVSFPVSTLSSPVNAKIKVDIDDDGLNYHHEYQIQLRFDEGAVKSSGAAV” as the sequence, how does the protein production read?
The protein production was “failed”.

Which protein production does the source give for “MMSSSRRSFMAAGLVVVLAVAALIFGAPGPVPLSAGSSMSDRGAADTAEAPPKSSWAGRQFRDMTLDEKIAQLFVVRIDGEFQNANTPSYRETVALVEEFGAGGLIFGPGTPMTQIAMANDLQAKAERPLLVAQDTEWGVGMRIDAATSFPPAMAIGATRDASHAYRVGYATAREARALGVHQLYAPVADVNNNPKNPIINVRSFGESPSLVGTMASAFTRGAQRGGTLATVKHFPGHGDTDVDSHINLPVLRFDRSRLDSLELPPFRQAFDAGVRSVMTGHLALPEIAADSVPATLSRPLTHGLLREELGFDGLVVTDALNMQAVTRTFGVGETAVRVLEAGADLVLMSTNPHAAHQAVRQAVTSGRIDTTEINDSVRRLLRVKQDLRLHETRRVSLDTTRHRVAQRSHEVLARTVARESLTLLANADSLLPLTPPEQHDALVVTLSDSEYPGTGDTFVDRLRAQPAIETLDTRRLDPRSDSTDVNDHLADAADYDVVVVPSFLRVQAWSGSIGLSDMHHDFLEDLAGTDTPVAFVAFGNPYAPTGLEPAPDAILAAYGSGEASQRAAAQALGGGAGTPGRLPVTIPGVAEKGEGRRLAPVAPREGPPESVGMDGAQLARLDTLLRSAMLDGAFPGAAVAVGRGPALARLDAYGYHTYDETKPVQTGTQYDLASLTKVVATTTAVMKLYEADSLELDAPVARYLPDFAQNGKEAVTVRQLLTHSSGLKPYLDPDERGPTRAALLDTLMAQPLTYTPGTRSTYSGLNAIALMRIVETISGRPFDAFCRTHIFEPLGMDQTGFYDTDVTRAWVAPTTDTAGTRRRGSVHDPMARDMDGVSGNAGLFSTAADLARFGYMLTHEGRIDGRQFLEPKTIETFTAQADVPGSTRALGWDTKSAEGYSSAGDEFSAASFGHTGYTGTSFWVDPAEDLFFVLLTNRVYPDDTADRITQVRPRAADIVHRAIDGPPRPLLPGPAPEQ” here?
Its protein production is “failed”.

Which protein production does the source give for “MICYKCGQDAGWNDKCPVCGADLSLFKRAIRISNSYYNDGLQKAQVRNLSGAIISLRQSLKFYKYNIQARNLLGLIYYEMGEMVDALSEWVISANYQPDDNLAKKYIDQIHNNRNQLETINQTIKKYNQALTYCKQDSKDLAVIQLRKVLSLNPKLVKGHQLLALLYLEEGHLDKAKKALRDAGKIDTDNTTTLRYLKEVNRRLKEKGTERKKKNDDLISYQSGNETIIMPKRFRESSMWANILYIIIGLVVGVAVTCFLVVPGIKSQAKTDAKKQLLSANDTISTNGQTISGLNDQIDKLKKELEDEKKKNDGVSDQISTYEALLNAYVYYTTNDVIKAGEALENINTSYLSDSAKQTYDTLNGSIADSYKEALYSQAYSSYSSGDYQSAIPTFQKLVGMDEAYRDGSAAYYLAQSFRKSGDLASAKPYYQYVVDNYAGTEKARTSKNYLAQEQQ” here?
The protein production was “failed”.

For “MTLQETLNSEYQISFEEAQATAKIVDDLAEAEQKLKNLERQIKALGPINLDAIAQFDEVNERFTFLSSQKDDLLEAKNLLLSTIDDMNDEVKIRFKTSFDAIRESFKTTFAQMFVSGLADLELTSDNLLEAGVEIKVQPPGKKLSSLNLMSGGEKALTALALIFAILRVRTVPFVVLDEVEAALDEANVKRFGDYMNHFDNSNQFIVVTHRRGTMAAAGSMYGVTMADAGVSKMISVKLDSAIN”, which protein production is on record?
Its protein production is “failed”.
